As usually defined, the stoichiometry N is the number of molecules, sites or subunits per partner or assembly.

The target in data set [1] is st_YfdX(YI), S. Typhi YfdX with Y100A and I137A (Salmonella enterica serovar Typhi). Nature of the data set: […]; pH 6.0; […] (pH 6.0), 200 mM NaCl, 1 mM DTT, […].
Data set [2] has the same target. Nature of the data set: […]; pH 7.5; […] (pH 7.5), 200 mM NaCl, 1 mM DTT, […].
Data set [3] concerns the molecule itself. Nature of the data set: SEC-MALS; pH 10.0 (kp_YfdX, Supplementary Figure S1).
Data set [4] concerns the molecule itself. Kind of data set: SEC-MALS; Superdex 75 Increase 10/300 GL; pH 6.0; st_YfdX proteins in 20 mM Bis-Tris-HCl (pH 6.0), 200 mM NaCl, 1 mM DTT, wild type at 10 and 30 mg/mL, mutants at 30 mg/mL; buffer and concentration of kp_YfdX not told. In general terms: SEC sorts molecules by how far they enter the pores of the column.
Data set [5] concerns the molecule itself. Kind of data set: […]; pH 7.5; […] (pH 7.5), 200 mM NaCl, 1 mM DTT, […].
Data set [6] deals with the molecule itself. Kind of data set: crystal structure; sitting-drop vapor diffusion at 18°C; crystal I and II at pH 4.6 (F222), crystal III at pH 5.0 (P222); crystals II and III from protein with 1 mM ZnCl2; the tetramer is seen in the crystal lattice.

With “st_YfdX(YI), S. Typhi YfdX with Y100A and I137A (domain or fragment)”, the stoichiometry N in data set [1] and in data set [2] was 2 in each case.

B1: K. pneumoniae YfdX (kp_YfdX), recombinant (natural protein)
chain: ATDSATAAPAAAATTQVQKEAADVLQVAVQGANAMRDIQFARLALFHGQPDSAKKLTDDAAALLAADDASWAKFVKTDAKAKMIADRYVIINASIALSEDYVATPEKESAIQSANEKLAKGDQKGAIDTLRLAGIGVIENQYLMPLNQTRKAVAQSQELLKAGKYYEANLVLKGAEEGIVVDSEMLVAGN
notes: YfdX of Klebsiella pneumoniae; Cloned into pET21a; PDB 3DZA (cited) holds a crystal structure of the same protein
B1: the “stoichiometry N” value in data set [3] came to 2; in data set [4], 4.

B2: S. Typhi YfdX, residues 10-186 (st_YfdX), wild type (domain or fragment)
chain: MAATNMTDNVTLNNDKISGQAWQAMRDIGMSRFELFNGRTQKAEQLAAQAEKLLNDDSTDWNLYVKSDKKAPVEGDHYIRINSSITVAEDYLPAGQKNDAINKANQKMKEGDKKGTIEALKLAGVSVIENQELIPLQQTRKDVTTALSLMNEGKYYQAGLLLKSAQDGIVVDSQSVQLEHHHHHH
B2: the “stoichiometry N” value in data set [5] is 2; in data set [6], 4.

The record behind these values is article PMC6339873 (Frontiers in Microbiology, 2018).
